Results on one variant are retold here after IntAct's records for PubMed 19050261.

B1: Complement factor H (Homo sapiens), P08603 (parent)
chain: MRLLAKIICLMLWAICVAEDCNELPPRRNTEILTGSWSDQTYPEGTQAIYKCRPGYRSLGNVIMVCRKGEWVALNPLRKCQKRPCGHPGDTPFGTFTLTGGNVFEYGVKAVYTCNEGYQLLGEINYRECDTDGWTNDIPICEVVKCLPVTAPENGKIVSSAMEPDREYHFGQAVRFVCNSGYKIEGDEEMHCSDDGFWSKEKPKCVEISCKSPDVINGSPISQKIIYKENERFQYKCNMGYEYSERGDAVCTESGWRPLPSCEEKSCDNPYIPNGDYSPLRIKHRTGDEITYQCRNGFYPATRGNTAKCTSTGWIPAPRCTLKPCDYPDIKHGGLYHENMRRPYFPVAVGKYYSYYCDEHFETPSGSYWDHIHCTQDGWSPAVPCLRKCYFPYLENGYNQNYGRKFVQGKSIDVACHPGYALPKAQTTVTCMENGWSPTPRCIRVKTCSKSSIDIENGFISESQYTYALKEKAKYQCKLGYVTADGETSGSITCGKDGWSAQPTCIKSCDIPVFMNARTKNDFTWFKLNDTLDYECHDGYESNTGSTTGSIVCGYNGWSDLPICYERECELPKIDVHLVPDRKKDQYKVGEVLKFSCKPGFTIVGPNSVQCYHFGLSPDLPICKEQVQSCGPPPELLNGNVKEKTKEEYGHSEVVEYYCNPRFLMKGPNKIQCVDGEWTTLPVCIVEESTCGDIPELEHGWAQLSSPPYYYGDSVEFNCSESFTMIGHRSITCIHGVWTQLPQCVAIDKLKKCKSSNLIILEEHLKNKKEFDHNSNIRYRCRGKEGWIHTVCINGRWDPEVNCSMAQIQLCPPPPQIPNSHNMTTTLNYRDGEKVSVLCQENYLIQEGEEITCKDGRWQSIPLCVEKIPCSQPPQIEHGTINSSRSSQESYAHGTKLSYTCEGGFRISEENETTCYMGKWSSPPQCEGLPCKSPPEISHGVVAHMSDSYQYGEEVTYKCFEGFGIDGPAIAKCLGEKWSHPPSCIKTDCLSLPSFENAIPMGEKKDVYKAGEQVTYTCATYYKMDGASNVTCINSRWTGRPTCRDTSCVNPPTVQNAYIVSRQMSKYPSGERVRYQCRSPYEMFGDEEVMCLNGNWTEPPQCKDSTGKCGPPPPIDNGDITSFPLSVYAPASSVEYQCQNLYQLEGNKRITCRNGQWSEPPKCLHPCVISREIMENYNIALRWTAKQKLYSRTGESVEFVCKRGYRLSSRSHTLRTTCWDGKLEYPTCAKR

This assay covers variants of B1. To be noted: with ptx3_human PTX3, P26022.
Chain of ptx3_human PTX3, P26022 (P26022 whole entry): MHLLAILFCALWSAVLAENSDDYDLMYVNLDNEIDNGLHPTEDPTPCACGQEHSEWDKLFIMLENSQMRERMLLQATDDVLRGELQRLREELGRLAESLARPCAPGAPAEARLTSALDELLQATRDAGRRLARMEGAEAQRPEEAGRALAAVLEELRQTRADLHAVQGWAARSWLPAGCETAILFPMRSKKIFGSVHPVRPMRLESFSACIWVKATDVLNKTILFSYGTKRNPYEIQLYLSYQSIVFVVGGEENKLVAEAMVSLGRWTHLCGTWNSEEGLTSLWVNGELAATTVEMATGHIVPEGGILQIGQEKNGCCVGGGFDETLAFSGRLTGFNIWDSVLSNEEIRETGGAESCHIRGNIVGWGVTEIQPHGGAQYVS
Consider Y402H, for which the “effect of a mutation on the interaction” value is reported as “with no effect”.
